From patent US20110256153A1 (IMMUNOGEN, published 2011)

Columns and labels:
human CD37 [1] = biological target: T1, human CD37 (human, UniProt P11049 1-278); experiment: competition flow cytometry on BJAB cells; competitor PE-labeled muCD37-3 (1 nM)
T1 construct: Tetraspanin antigen; Expressed on 300-19 cells transfected with pSRa-CD37 (entire CDS) or endogenous on WSU-DLCL-2, BJAB and Ramos lymphoma cells; also called CD37 antigen; human CD37 wildtype
T1 sequence: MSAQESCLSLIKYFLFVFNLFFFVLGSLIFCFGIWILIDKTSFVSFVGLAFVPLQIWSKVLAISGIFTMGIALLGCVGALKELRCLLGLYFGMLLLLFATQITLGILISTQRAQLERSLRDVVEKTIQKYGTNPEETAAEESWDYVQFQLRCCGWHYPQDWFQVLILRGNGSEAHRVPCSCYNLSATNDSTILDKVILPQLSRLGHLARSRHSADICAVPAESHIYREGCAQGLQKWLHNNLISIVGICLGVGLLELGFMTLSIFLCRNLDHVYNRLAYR
Method: Flow cytometry binding assays using BJAB cells and a competitive binding format were used to evaluate binding affinity of chimeric and humanized versions of CD37-3. BJAB cells were incubated with a 1 nM concentration of PE-labeled muCD37-3 antibody and competition was measured by adding varying amounts of muCD37-3, chCD37-3, huCD37-3v1.0 or huCD37-3v1.01. The samples were incubated for 3 hrs at 4° C. Then, the cells were pelleted, washed with FACS buffer and resuspended in 200 μL of PBS containing 1% formaldehyde. Samples were acquired using a FACSCalibur flow cytometer with the HTS multiwell sampler and analyzed using CellQuest Pro (all from BD Biosciences, San Diego, US). The resulting mean PE fluorescence was plotted against the amount of competing antibody used in a semi-log plot. FIG. 9B depicts the dose-response curves generated by non-linear regression for each antibody. The value for the apparent dissociation constant (Kd) of each antibody was calculated using GraphPad Prism v4 (GraphPad software, San Diego, Calif.).

hCD37-M1 = biological target: T2, hCD37-M1 (human/murine chimera, UniProt P11049 1-281); experiment: flow cytometry, 300-19 cells expressing hCD37-M1, 1.5 µg/mL antibody
T2 construct: stably expressed on 300-19 cells; also called hCD37-M1 variant
T2 chain: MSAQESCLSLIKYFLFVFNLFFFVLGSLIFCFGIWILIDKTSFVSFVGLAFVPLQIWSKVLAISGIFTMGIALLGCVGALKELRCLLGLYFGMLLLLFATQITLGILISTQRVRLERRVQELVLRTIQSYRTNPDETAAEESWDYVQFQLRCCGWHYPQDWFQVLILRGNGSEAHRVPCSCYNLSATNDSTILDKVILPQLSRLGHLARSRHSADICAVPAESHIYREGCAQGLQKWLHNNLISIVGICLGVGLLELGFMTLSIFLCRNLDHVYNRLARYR
Outline: (§1)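 300-19 cells transfected with human CD37 wildtype or variants (non-transfected as control), 1×10⁵ per sample, incubated 3 h with purified murine antibodies (1.5 μg/mL for variant comparison) in RPMI-1640 with 2% goat serum. Bound antibody detected with FITC goat anti-mouse IgG (1 h), formaldehyde-fixed, analysed by flow cytometry.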

human CD37 [2] = biological target: T1, human CD37; experiment: flow cytometry titration on BJAB cells; apparent Kd
Outline: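 BJAB cells were incubated 3 h with titrated antibody in RPMI-1640 containing 2% goat serum, then 1 h with FITC anti-mouse or anti-human IgG, fixed in 1% formaldehyde and read by flow cytometry. Apparent Kd was derived by non-linear regression of the dose-response curves.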

hCD37-M45 = biological target: T3, hCD37-M45 (human/murine chimera, UniProt P11049 1-281); experiment: flow cytometry, 300-19 cells expressing hCD37-M45
T3 construct: stably expressed on 300-19 cells; also called hCD37-M45 variant
T3 chain: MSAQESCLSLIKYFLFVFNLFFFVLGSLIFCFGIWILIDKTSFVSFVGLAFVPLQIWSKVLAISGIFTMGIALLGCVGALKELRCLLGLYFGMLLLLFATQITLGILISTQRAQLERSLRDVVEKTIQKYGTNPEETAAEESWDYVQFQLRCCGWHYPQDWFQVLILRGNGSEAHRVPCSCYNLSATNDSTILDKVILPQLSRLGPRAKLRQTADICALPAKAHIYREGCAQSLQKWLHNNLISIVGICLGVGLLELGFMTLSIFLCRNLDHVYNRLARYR
Outline: as §1

B1: muCD37-3 (antibody, mouse IgG2a, kappa)
heavy: QVQVKESGPGLVAPSQSLSITCTVSGFSLTTSGVSWVRQPPGKGLEWLGVIWGDGSTNYHSALKSRLSIKKDHSKSQVFLKLNSLQTDDTATYYCAKGGYSLAHWGQGTLVTVSAAKTTAPSVYPLAPVCGDTTGSSVTLGCLVKGYFPEPVTLTWNSGSLSSGVHTFPAVLQSDLYTLSSSVTVTSSTWPSQSITCNVAHPASSTKVDKKIEPRGPTIKPCPPCKCPAPNLLGGPSVFIFPPKIKDVLMISLSPIVTCVVVDVSEDDPDVQISWFVNNVEVHTAQTQTHREDYNSTLRVVSALPIQHQDWMSGKEFKCKVNNKDLPAPIERTISKPKGSVRAPQVYVLPPPEEEMTKKQVTLTCMVTDFMPEDIYVEWTNNGKTELNYKNTEPVLDSDGSYFMYSKLRVEKKNWVERNSYSCSVVHEGLHNHHTTKSFSRTPGK
light: DIQMTQSPASLSVSVGETVTITCRASENIRSNLAWYQQKQGKSPQLLVNVATNLADGVPSRFSGSGSGTQYSLKINSLQSEDFGTYYCQHYWGTTWTFGGGTKLEIKRADAAPTVSIFPPSSEQLTSGGASVVCFLNNFYPKDINVKWKIDGSERQNGVLNSWTDQDSKDSTYSMSSTLTLTKDEYERHNSYTCEATHKTSTSPIVKSFNRNEC
notes: Murine hybridoma antibody; also called murine CD37-3 antibody; muCD37-3-PE
Human CD37 [1]
  EC50: 0.8 nM
hCD37-M1
  binding result: binds
Human CD37 [2]
  Kd: 0.2 nM
hCD37-M45
  binding result: no binding (tested: 1.5 µg/mL)
